According to paper PMC10643139:

Legend:
Experiment in all cases: NanoBRET
[1] = target: Halo-SSX-C (HaloTag fused to the SSX1 C-terminal region present in SS18-SSX1); settings: live HEK293T cells; mean ± S.E.M of n = 3 biological replicates; parent: est. 72; read off a plot
[2] = target: Halo-SSX-C^ΔRD (SSX-C with a deletion of the SSXRD); settings: live HEK293T cells; mean ± S.E.M of n = 3 biological replicates; parent: est. 19; read off a plot
[3] = target: Halo-SSX-C^E184* (SSX-C mutant lacking the last five amino acids); settings: live HEK293T cells; mean ± S.E.M of n = 3 biological replicates; parent: est. 40; read off a plot

Substance “histone H2A fused to NanoLuc luciferase (NLuc-H2A) (from UniProt P0C0S8) K118R; K119R” has a response [1] of 42 mBU, a response [2] of 16 mBU and a response [3] of 36 mBU.
